Measured values reported in patent US20110152345A1, “EBI3, DLX5, NPTX1 AND CDKN3 FOR TARGET GENES OF LUNG CANCER THERAPY AND DIAGNOSIS” (Oncotherapy Science, Inc., priority 2007, published 2011).
Each block holds one molecule with its values, some of them ahead of it.

B2: cyclin-dependent kinase inhibitor 3 (CDKN3), endogenous in LC319 cells (enzyme)
chain: MKPPSSIQTSEFDSSDEEPIEDEQTPIHISWLSLSRVNCSQFLGLCALPGCKFKDVRRNVQKDTEELKSCGIQDIFVFCTRGELSKYRVPNLLDLYQQCGIITHHHPIADGGTPDIASCCEIMEELTTCLKNYRKTLIHCYGGLGRSCLVAACLLLYLSDTISPEQAIDSLRDLRGSGAIQTIKQYNYLHEFRDKLAAHLSSRDSQSRSVSR
notes: Endogenous protein in extracts of the human lung cancer cell line LC319; also called KAP; KAP1

Legend:
[1] = target: B2; assay: co-immunoprecipitation with monoclonal anti-Flag antibody from LC319 cells
Source text: The biological importance of the association of these two proteins and its potential as a therapeutic target for lung cancer was subsequently investigated. To determine the domain in EF-1delta that is required for interaction with CDKN3, each construct of EF-1delta with FLAG-HA-sequence at its N- and C-terminals were transfected into LC319 cells (EF-1delta72-160, EF-1delta161-281, EF-1delta1-160, EF-1delta72-281, and full-length EF-1delta1-281; FIG. 21B).

[2] = target: T1, eukaryotic translation elongation factor 1 delta (EF-1delta), endogenous (human, UniProt P29692 2-281); assay: co-immunoprecipitation with anti-CDKN3 monoclonal antibody from LC319 extracts, silver stain, MALDI-TOF-MS
T1 construct: Endogenous 31-kDa protein of LC319 cells
T1 sequence: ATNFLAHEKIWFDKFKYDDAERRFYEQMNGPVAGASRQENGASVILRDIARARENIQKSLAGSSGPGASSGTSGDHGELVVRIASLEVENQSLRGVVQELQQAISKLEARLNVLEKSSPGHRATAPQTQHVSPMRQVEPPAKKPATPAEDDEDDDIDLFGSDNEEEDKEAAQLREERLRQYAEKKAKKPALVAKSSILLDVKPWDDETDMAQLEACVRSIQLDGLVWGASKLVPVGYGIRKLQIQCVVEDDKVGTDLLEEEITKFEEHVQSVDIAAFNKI
Experimental: Cell extracts from lung-cancer cell line LC319 were pre-cleared by incubation at 4 degree Centigrade for 1 hour with 100 micro L of protein G-agarose beads in a final volume of 2 ml of immunoprecipitation buffer [0.5% NP-40, 50 mM Tris-HCl, 150 mM NaCl] in the presence of protease inhibitor. After centrifugation at 1000 rpm for 5 min at 4 degree Centigrade, the supernatant was incubated at 4 degree Centigrade with anti-CDKN3 monoclonal antibody or normal mouse IgG, for 2 hours. The beads were then collected by centrifugation at 5000 rpm for 2 min and washed six times with 1 ml of each immunoprecipitation buffer. The washed beads were resuspended in 50 micro L of Laemmli sample buffer and boiled for 5 min, and the proteins were separated by 5-10% SDS PAGE gels (BIO RAD). After electrophoresis, the gels were stained with silver. Protein bands specifically found in extracts immunoprecipitated with anti-CDKN3 monoclonal antibody were excised and served for matrix-assisted laser desorption/ionization-time of flight mass spectrometry (MALDI-TOF-MS) analysis (AXIMA-CFR plus, SHIMADZU BIOTECH).

COS-7 cells = assay: Autocrine assay: COS-7 cells incubated with recombinant NPTX1 protein, MTT; type: cell-based; details: NPTX1 at final concentration of 0.1 nM to 1 nM, compared with control
Source text: FIG. 10. Presents the autocrine cellular growth effect of NPTX1. Part A depicts the inhibition of growth of lung cancer cells by siRNA against NPTX1. The upper panels of Part A depict the expression of NPTX1 in response to si-NPTX1s (si-1, -2) or control siRNAs (LUC or SCR) in A549 and SBC-5 cells, analyzed by RT-PCR analysis. The middle panels of Part A present images of colonies examined by colony-formation assays of the A549 and SBC-5 cells transfected with specific siRNAs for NPTX1 or control plasmids. The bottom panels of Part A present the viability of the A549 or SBC-5 cells evaluated by MTT assay in response to si-NPTX1s, -LUC, or -SCR. All assays were performed three times, and in triplicate wells. Part B presents growth-promoting effect of NPTX1 transiently overexpressed in COS-7 cells. Top panel, Transient expression of NPTX1 in COS-7 cells, detected by Western blot analysis. The bottom panels, Viability of the COS-7 cells evaluated by MTT (left) and colony formation assays (right). C, Left panel, Autocrine/paracrine effect of NPTX1 on the growth of mammalian cells. Cell viability counted by MTT assays (COS-7 cells treated with NPTX1 in final concentrations of 0, 0.1, or 1 nM) (right lanes indicated by PBS). […]

[3] = target: T2, neuronal pentraxin receptor (NPTXR), endogenous on SBC-5 lung cancer cells (human, UniProt O95502 1-500); assay: immunocytochemistry of recipient SBC-5 cells incubated 3 hours with conditioned medium of NPTX1-transfected donor cells
T2 construct: Endogenous NPTXR of the human SCLC cell line SBC-5
T2 sequence: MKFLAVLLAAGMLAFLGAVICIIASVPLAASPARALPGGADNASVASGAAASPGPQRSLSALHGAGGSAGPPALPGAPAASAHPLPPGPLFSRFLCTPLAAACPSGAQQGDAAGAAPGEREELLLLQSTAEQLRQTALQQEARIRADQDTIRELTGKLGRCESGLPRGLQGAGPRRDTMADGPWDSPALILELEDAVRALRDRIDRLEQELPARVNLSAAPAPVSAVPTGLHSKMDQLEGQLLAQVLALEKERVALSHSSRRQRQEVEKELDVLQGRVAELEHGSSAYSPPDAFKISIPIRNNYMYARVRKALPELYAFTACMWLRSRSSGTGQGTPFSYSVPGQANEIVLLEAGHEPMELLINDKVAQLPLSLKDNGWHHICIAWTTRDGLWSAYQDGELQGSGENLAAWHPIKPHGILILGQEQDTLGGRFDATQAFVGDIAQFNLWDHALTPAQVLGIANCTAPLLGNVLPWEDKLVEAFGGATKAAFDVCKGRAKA
Experimental: FIG. 14: Presents internalization of NPTX1 after binding with NPTXR Part A, B, Recipient COS-7 cells (A) or SBC-5 cells (B) were incubated with conditioned medium from NPTX1-transfected (+) donor COS-7 cells or SBC-5 cells, respectively. c-myc-tagged NPTX1 was detected 3 hours after treatment of recipient cells with donor's conditioned medium. Green: NPTX1. Nuclei were visualized by DAPI. (a) Cells were stained for extracellular surface staining with anti-myc antibody for detecting NPTX1. (b) Cells were permialized by Triton X-100 and stained for NPTX1 (myc). (c) 3 hours treatment with PBS. […] 1 or 3 hours after treatment of recipient COS-7 cells with conditioned medium from donor NPTX1-transfected (+) COS-7 cells, internalized NPTX1 was detected by western blotting using anti-myc antibodies.
To determine the mechanism involved in the regulation of NPTX1/NPTXR signaling, the present inventors examined whether NPTX1/NPTXR could be internalized when cells were exposed to secreted NPTX1, through confocal microscopy observation of the subcellular distribution of the NPTX1 and NPTXR. […] The present Mentors detected binding of NPTX1 to the surface of these cells by immunocytochemistry (FIGS. 14A and 14B). […] Then, immunocytochemistry was done under membrane-permeabilizing conditions and we detected internalized exogenous NPTX1 (FIGS. 14A and 14B). […]

- binding result [1]: no binding
B1: EF-1delta161-281 (FLAG-HA-tagged deletion construct) (other, not shown: small tags and cut ends)
chain: GSDNEEEDKEAAQLREERLRQYAEKKAKKPALVAKSSILLDVKPWDDETDMAQLEACVRSIQLDGLVWGASKLVPVGYGIRKLQIQCVVEDDKVGTDLLEEEITKFEEHVQSVDIAAFNKI
notes: Lacks the N-terminal 160 amino acids of EF-1delta; also called EF-1delta 161-281 construct

Molecule: B2
- binding result [2]: binds

- binding result [3]: binds
B3: myc/His-tagged NPTX1 (pcDNA3.1-NPTX1-myc/His) (ligand)
chain: QDFGPTRFICTSVPVDADMCAASVAAGGAEELRSSVLQLRETVLQQKETILSQKETIRELTAKLGRCESQSTLDPGAGEARAGGGRKQPGSGKNTMGDLSRTPAAETLSQLGQTLQSLKTRLENLEQYSRLNSSSQTNSLKDLLQSKIDELERQVLSRVNTLEEGKGGPRNDTEERVKIETALTSLHQRISELEKGQKDNRPGDKFQLTFPLRTNYMYAKVKKSLPEMYAFTVCMWLKSSATPGVGTPFSYAVPGQANELVLIEWGNNPMEILINDKVAKLPFVINDGKWHHICVTWTTRDGVWEAYQDGTQGGSGENLAPYHPIKPQGVLVLGQEQDTLGGGFDATQAFVGELAHFNIWDRKLTPGEVYNLATCSTKALSGNVIAWAESHIEIYGGATKWTFEACRQIN
notes: also called c-myc-tagged NPTX1; exogenous NPTX1; not shown: myc-His tag of the pcDNA3.1 myc-His vector
- COS-7 cell growth by MTT assays (COS-7 cells): enhancement of the cell growth
